The values that follow come from patent EP1870467A1 (UNIVERSITY COLLEGE LONDON, dated 2007).

This series concerns the molecule itself. The series can be described thus: western blot, band at about 120kD read as a homodimer. For orientation: Immunoblotting shows a protein as a band on a membrane.

B1: full length MEPE (phosphatonin) expressed in an insect cell line and excreted into the medium (ligand)
chain: PTFQPQTEKTKQSCVEEQRQEEKNKDNIGFHHLGKRINQELSSKENIVQERKKDLSLSEASENKGSSKSQNYFTNRQRLNKEYSISNKENTHNGLRMSIYPKSTGNKGFEDGDDAISKLHDQEEYGAALIRNNMQHIMGPVTAIKLLGEENKENTPRNVLNIIPASMNYAKAHSKDKKKPQRDSQAQKSPVKSKSTHRIQHNIDYLKHLSKVKKIPSDFEGSGYTDLQERGDNDISPFSGDGQPFKDIPGKGEATGPDLEGKDIQTGFAGPSEAESTHLDTKKPGYNEIPEREENGGNTIGTRDETAKEADAVDVSLVEGSNDIMGSTNFKELPGREGNRVDAGSQNAHQGKVEFHYPPAPSKEKRKEGSSDAAESTNYNEIPKNGKGSTRKGVDHSNRNQATLNEKQRFPSKGKSQGLPIPSRGLDNEIKNEMDSFNGPSHENIITHGRKYHYVPHRQNNSTRNKGMPQGKGSWGRQPHSNRRFSSRRRDDSSESSDSGSSSESDGD
notes: Secreted into insect cell medium; also called full length phosphatonin; Bac-1
As for B1, the binding result is on record as “binds”.
